Measured values taken from the RNAGym collection of RNA variant scans (doi:10.1073/pnas.2313332121).

B1: TPR t1 (parent)
chain: GACCAAUCUGCCCUCAGAGCUCGAGAACAUCUUCGGAUGCAGAGGAGGCAGGCUUCGGUGGCGCGAUAGCGCCAACGUCCUCAACCUCCAAUGCAUCCCACCACAUGAUGAUGCCUGAAGAGCCUUGGUUUUUUG

Variants of: B1
Experiment: polymerase ribozyme fitness, log enrichment relative to wild type (log ratio); higher = more active; in vitro selection for triplet polymerase activity
Procedure, shortened: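 The heterodimeric triplet polymerase ribozyme's subunits were each mutagenized into PCR-built libraries and transcribed. Every library was selected once, in triplicate, by annealing with a biotinylated primer, the partner subunit and triplets, incubating frozen at −7 °C, gel-excising extended constructs, capturing on streptavidin beads and running RT-PCR. Input and output libraries were Illumina-sequenced, with genotypes kept only at ≥10 input reads and ≥1 read per output. Fitness, from inverse-variance-weighted replicate averages, is the base-2 logarithm of genotype enrichment over wild-type enrichment.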

**Q.** For G1U, which “polymerase ribozyme fitness (log ratio)” value is on record?
**A.** Its value is 0.29.

**Q.** With A2C A5C C62A G128C as the variant, how does the “polymerase ribozyme fitness (log ratio)” value read?
**A.** The value was -2.75.

**Q.** Which “polymerase ribozyme fitness (log ratio)” value does the source give for A2C A24G A29C G47U G120A here?
**A.** Its value is -5.73.

**Q.** For A2C A37U C56G G69A U78G G120U, which “polymerase ribozyme fitness (log ratio)” value is on record?
**A.** Its value is -5.2.

**Q.** Which “polymerase ribozyme fitness (log ratio)” value does the source give for A2C A50U here?
**A.** The value was -2.44.

**Q.** For A2C A83U, which “polymerase ribozyme fitness (log ratio)” value is on record?
**A.** Its value is -1.1.

**Q.** For A2C A105C, which “polymerase ribozyme fitness (log ratio)” value is on record?
**A.** Its value is -4.23.

**Q.** Which “polymerase ribozyme fitness (log ratio)” value does the source give for A2C C3G G52U G60A U129A here?
**A.** Its value is -5.23.

**Q.** Which “polymerase ribozyme fitness (log ratio)” value does the source give for A2C C3G G71C U129A here?
**A.** Its value is -4.77.

**Q.** Which “polymerase ribozyme fitness (log ratio)” value does the source give for A2C C3U here?
**A.** The value was -1.71.

**Q.** Which “polymerase ribozyme fitness (log ratio)” value does the source give for A2C C4A G120A here?
**A.** The value was 0.58.

**Q.** Which “polymerase ribozyme fitness (log ratio)” value does the source give for A2C C4U U9A C76U here?
**A.** Its value is -0.884.

**Q.** With A2C C11A G17C C70U C123G as the variant, how does the “polymerase ribozyme fitness (log ratio)” value read?
**A.** Its value is -3.69.

**Q.** With A2C C12G as the variant, how does the “polymerase ribozyme fitness (log ratio)” value read?
**A.** The value was -1.09.

**Q.** With A2C C12G C115A U125A as the variant, how does the “polymerase ribozyme fitness (log ratio)” value read?
**A.** The value was -2.05.

**Q.** For A2C C12G G69U, which “polymerase ribozyme fitness (log ratio)” value is on record?
**A.** Its value is 0.12.

**Q.** With A2C C12U G42U A84U C94A U129A as the variant, how does the “polymerase ribozyme fitness (log ratio)” value read?
**A.** Its value is -3.55.

**Q.** With A2C C13A G36C G120U as the variant, how does the “polymerase ribozyme fitness (log ratio)” value read?
**A.** The value was -1.59.

**Q.** With A2C C13G C15U C62U as the variant, how does the “polymerase ribozyme fitness (log ratio)” value read?
**A.** The value was -4.93.

**Q.** Which “polymerase ribozyme fitness (log ratio)” value does the source give for A2C C15A A27C C31A G51U A84C C99G A121U U130G here?
**A.** The value was -6.15.

**Q.** With A2C C15U C56U U129C as the variant, how does the “polymerase ribozyme fitness (log ratio)” value read?
**A.** Its value is -1.75.

**Q.** With A2C C15U C104U as the variant, how does the “polymerase ribozyme fitness (log ratio)” value read?
**A.** The value was -2.51.

**Q.** With A2C C20G G60A U112C as the variant, how does the “polymerase ribozyme fitness (log ratio)” value read?
**A.** The value was -4.64.

**Q.** Which “polymerase ribozyme fitness (log ratio)” value does the source give for A2C C40G C56G C72G C124U here?
**A.** The value was -4.17.

**Q.** For A2C C49A G93U G110A, which “polymerase ribozyme fitness (log ratio)” value is on record?
**A.** Its value is -4.44.

**Q.** With A2C C49G U67G A84G G110U as the variant, how does the “polymerase ribozyme fitness (log ratio)” value read?
**A.** Its value is -5.64.

**Q.** For A2C C62U G110A, which “polymerase ribozyme fitness (log ratio)” value is on record?
**A.** Its value is -3.07.

**Q.** With A2C C72A G120U as the variant, how does the “polymerase ribozyme fitness (log ratio)” value read?
**A.** The value was -1.37.

**Q.** Which “polymerase ribozyme fitness (log ratio)” value does the source give for A2C C72U here?
**A.** Its value is -2.38.

**Q.** With A2C C88G C104A U112G as the variant, how does the “polymerase ribozyme fitness (log ratio)” value read?
**A.** Its value is -4.8.

**Q.** For A2C C89G, which “polymerase ribozyme fitness (log ratio)” value is on record?
**A.** The value was -3.68.

**Q.** Which “polymerase ribozyme fitness (log ratio)” value does the source give for A2C C101A U129A here?
**A.** The value was -2.79.

**Q.** For A2C G10A C13U G69C, which “polymerase ribozyme fitness (log ratio)” value is on record?
**A.** The value was -3.6.

**Q.** For A2C G19A A29C A41G A43U C64G G113A C123A U126G, which “polymerase ribozyme fitness (log ratio)” value is on record?
**A.** The value was -5.93.

**Q.** With A2C G39U as the variant, how does the “polymerase ribozyme fitness (log ratio)” value read?
**A.** The value was -2.12.

**Q.** For A2C G42C U96A C123U, which “polymerase ribozyme fitness (log ratio)” value is on record?
**A.** The value was -3.31.

**Q.** For A2C G42U, which “polymerase ribozyme fitness (log ratio)” value is on record?
**A.** Its value is -3.31.

**Q.** Which “polymerase ribozyme fitness (log ratio)” value does the source give for A2C G44C here?
**A.** The value was -3.44.

**Q.** With A2C G47C C123G as the variant, how does the “polymerase ribozyme fitness (log ratio)” value read?
**A.** The value was -2.2.

**Q.** With A2C G52C as the variant, how does the “polymerase ribozyme fitness (log ratio)” value read?
**A.** The value was -2.58.

**Q.** Which “polymerase ribozyme fitness (log ratio)” value does the source give for A2C G61U here?
**A.** The value was -1.66.

**Q.** With A2C G63U A84G U131G as the variant, how does the “polymerase ribozyme fitness (log ratio)” value read?
**A.** The value was -4.08.

**Q.** Which “polymerase ribozyme fitness (log ratio)” value does the source give for A2C G110A A121C here?
**A.** The value was -2.66.

**Q.** Which “polymerase ribozyme fitness (log ratio)” value does the source give for A2C U7A G10U C98U here?
**A.** Its value is -4.07.

**Q.** Which “polymerase ribozyme fitness (log ratio)” value does the source give for A2C U7G G57U G60U here?
**A.** The value was -0.82.

**Q.** For A2C U14G U54G U96G A100U G117A U126A U129G, which “polymerase ribozyme fitness (log ratio)” value is on record?
**A.** Its value is -5.8.

**Q.** Which “polymerase ribozyme fitness (log ratio)” value does the source give for A2C U33A C97A U106A G120C U126A here?
**A.** The value was -6.8.

**Q.** Which “polymerase ribozyme fitness (log ratio)” value does the source give for A2C U54C G110A here?
**A.** The value was -3.04.

**Q.** Which “polymerase ribozyme fitness (log ratio)” value does the source give for A2C U59C C73A U131A here?
**A.** Its value is -2.5.

**Q.** Which “polymerase ribozyme fitness (log ratio)” value does the source give for A2C U59G here?
**A.** Its value is -1.54.

**Q.** For A2C U106A, which “polymerase ribozyme fitness (log ratio)” value is on record?
**A.** Its value is -1.44.

**Q.** With A2G A18C A91C as the variant, how does the “polymerase ribozyme fitness (log ratio)” value read?
**A.** The value was -2.93.

**Q.** With A2G A18U A29G C104G C124U U130G as the variant, how does the “polymerase ribozyme fitness (log ratio)” value read?
**A.** The value was -4.82.

**Q.** Which “polymerase ribozyme fitness (log ratio)” value does the source give for A2G A18U C28G C124A U130C here?
**A.** The value was -5.83.

**Q.** Which “polymerase ribozyme fitness (log ratio)” value does the source give for A2G A27U C79G C104U here?
**A.** Its value is -4.76.

**Q.** For A2G A29G G71A A90C, which “polymerase ribozyme fitness (log ratio)” value is on record?
**A.** Its value is -3.65.

**Q.** For A2G A68G U106G U125G, which “polymerase ribozyme fitness (log ratio)” value is on record?
**A.** Its value is -5.29.

**Q.** For A2G A74U C89G U112A, which “polymerase ribozyme fitness (log ratio)” value is on record?
**A.** The value was -1.32.

**Q.** For A2G C8A G51U U59G, which “polymerase ribozyme fitness (log ratio)” value is on record?
**A.** Its value is -2.18.

**Q.** For A2G C11A C56G, which “polymerase ribozyme fitness (log ratio)” value is on record?
**A.** The value was -1.58.

**Q.** For A2G C12G G17A U54C C88U A91U C101U A105U C114G, which “polymerase ribozyme fitness (log ratio)” value is on record?
**A.** The value was -5.19.

**Q.** With A2G C12G U21A G71U U78A A121U as the variant, how does the “polymerase ribozyme fitness (log ratio)” value read?
**A.** Its value is 0.758.

**Q.** With A2G C12U as the variant, how does the “polymerase ribozyme fitness (log ratio)” value read?
**A.** The value was -0.378.

**Q.** With A2G C12U C56A C97U C124U as the variant, how does the “polymerase ribozyme fitness (log ratio)” value read?
**A.** The value was 0.631.

**Q.** With A2G C12U C101U A105U C115A as the variant, how does the “polymerase ribozyme fitness (log ratio)” value read?
**A.** Its value is -1.02.

**Q.** Which “polymerase ribozyme fitness (log ratio)” value does the source give for A2G C13G C86U C123A U133C here?
**A.** The value was 0.0468.

**Q.** Which “polymerase ribozyme fitness (log ratio)” value does the source give for A2G C13U here?
**A.** The value was 0.291.

**Q.** For A2G C13U A46U C86A G113U G120U C123G, which “polymerase ribozyme fitness (log ratio)” value is on record?
**A.** Its value is -4.13.

**Q.** For A2G C13U A91C G122A, which “polymerase ribozyme fitness (log ratio)” value is on record?
**A.** Its value is -0.77.

**Q.** For A2G C13U C53U, which “polymerase ribozyme fitness (log ratio)” value is on record?
**A.** Its value is -0.428.

**Q.** For A2G C20A C88U, which “polymerase ribozyme fitness (log ratio)” value is on record?
**A.** The value was -4.8.

**Q.** For A2G C20G G113A, which “polymerase ribozyme fitness (log ratio)” value is on record?
**A.** Its value is -1.61.

**Q.** With A2G C20U as the variant, how does the “polymerase ribozyme fitness (log ratio)” value read?
**A.** Its value is -1.26.

**Q.** For A2G C22A, which “polymerase ribozyme fitness (log ratio)” value is on record?
**A.** Its value is -4.99.

**Q.** Which “polymerase ribozyme fitness (log ratio)” value does the source give for A2G C28U G110U here?
**A.** Its value is -2.63.

**Q.** With A2G C56A as the variant, how does the “polymerase ribozyme fitness (log ratio)” value read?
**A.** Its value is -0.384.

**Q.** For A2G C56A C73U A84U G120U, which “polymerase ribozyme fitness (log ratio)” value is on record?
**A.** Its value is -1.68.

**Q.** With A2G C62U A83G as the variant, how does the “polymerase ribozyme fitness (log ratio)” value read?
**A.** The value was -1.82.

**Q.** For A2G C70U U96A, which “polymerase ribozyme fitness (log ratio)” value is on record?
**A.** Its value is -1.87.

**Q.** For A2G C82A A111U, which “polymerase ribozyme fitness (log ratio)” value is on record?
**A.** Its value is -4.1.

**Q.** For A2G C82G, which “polymerase ribozyme fitness (log ratio)” value is on record?
**A.** The value was -1.18.

**Q.** Which “polymerase ribozyme fitness (log ratio)” value does the source give for A2G C97U G117A A119G here?
**A.** The value was -0.0934.

**Q.** With A2G C114A U126C as the variant, how does the “polymerase ribozyme fitness (log ratio)” value read?
**A.** The value was -4.32.
